Like-named read-outs stand apart in the source and are kept apart here.
T1: recombinant human IL-31 protein (Peprotech) (human, UniProt Q6EBC2 24-164)
T1 sequence (looked up): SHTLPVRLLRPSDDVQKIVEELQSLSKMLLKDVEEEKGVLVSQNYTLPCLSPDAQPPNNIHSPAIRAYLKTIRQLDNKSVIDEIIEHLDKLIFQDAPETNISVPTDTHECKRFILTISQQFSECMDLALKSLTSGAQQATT

T2: human IL-31-His (human, UniProt Q6EBC2 24-164)
T2 construct: captured via an anti-His tag antibody; also called human IL-31 (scFv SPR); not shown: His tag
T2 sequence (looked up): T1 sequence (looked up)

B1: dupilumab (antibody, V domains shown)
VH: EVQLVESGGGLEQPGGSLRLSCAGSGFTFRDYAMTWVRQAPGKGLEWVSSISGSGGNTYYADSVKGRFTISRDNSKNTLYLQMNSLRAEDTAVYYCAKDRLSITIRPRYYGLDVWGQGTTVTVSS
VL: DIVMTQSPLSLPVTPGEPASISCRSSQSLLYSIGYNYLDWYLQKSGQSPQLLIYLGSNRASGVPDRFSGSGSGTDFTLKISRVEAEDVGFYYCMQALQTPYTFGQGTKLEIKR
B2: PRO1643 (scFv, V domains shown)
VH: QSQLVESGGGLVQPGGSLRLSCAASGFSFSANYWICWVRQAPGKGLEWIVCIYIGSRADTYYAPWAKGRFTISKDNSKNTVYLQMNSLRAEDTAVYFCARFSSGIYDLDRFFLWGQGTLVTVSS
V domain: AFQLTQSPSSLSASVGDRVTITCQASQSIDSWLAWYQQKPGKPPKLLIYQASKLASGVPSRFSGSGSGTDYTLTISSLQPEDFATYYCQTYYGGGHIGWGFGTGTKVTV
notes: anti-IL-31 scFv, full graft; VL entry ends with LCDR3 (no FR4); also called 50-09-D07-sc03

Key:
[1] = molecular target: human IL-4R on cells (HEK-Blue IL-4/IL-13 cells, human PBMC, human whole blood) (human, UniProt P24394 26-825); experiment: cell-based or functional assay
[2] = molecular target: T3, human IL-4R (form not stated) (human, UniProt P24394 26-232, limits assumed); experiment: competition ELISA, hIL-4/IL-4R (plate of PRO1899)
T3 construct: whole entry named; also called hIL-4R

[3] = molecular target: T3, human IL-4R (form not stated); experiment: competition ELISA, hIL-4/IL-4R (plate of PRO1898)
[4] = molecular target: T1, recombinant human IL-31 protein …; experiment: cell-based or functional assay
human IL-31-His [5] = molecular target: T2, human IL-31-His; experiment: SPR, IL-31-His captured, scFv analyte, full titration mode
[6] = molecular target: T1, recombinant human IL-31 protein …; experiment: cell-based or functional assay; remark: listed apart in the source
human IL-31-His [7] = molecular target: T2, human IL-31-His; experiment: SPR, IL-31-His captured, scFv analyte, screening mode
Description: (§1) Affinity of the two humanized scFvs to human and cynomolgus IL-31 was determined by SPR analysis on a T200 device (Biacore, GE Healthcare). Cynomolgus IL-31 was manufactured on demand by Sino Biological since it was not available commercially. Human and cynomolgus IL-31-His was captured via an anti-His tag antibody coupled to a carboxylmethylated dextran surface and the scFvs were injected as analyte. After each analyte injection cycle the sensor chip was regenerated and new antigen was captured. The scFvs were measured using a dose response multi-cycle kinetic assay in a high-throughput mode with two concentrations (30 and 10 nM) diluted in running buffer. Obtained sensorgrams were fitted using a 1:1 binding model.

human IL-31-His [8] = molecular target: T2, human IL-31-His; experiment: SPR, IL-31-His captured, scFv analyte (30 and 10 nM)
Description: as §1
Affinity of PRO1643 and of the optimized anti-IL-31 scFvs to human IL-31 was determined by SPR analysis on a T200 device (Biacore, GE Healthcare), as described above in section 2.2.2. The scFvs were measured using a dose response multi-cycle kinetic assay in a high-throughput mode with two concentrations (30 and 10 nM) diluted in running buffer. Obtained sensorgrams were fitted using a 1:1 binding model.

[9] = molecular target: T1, recombinant human IL-31 protein …; experiment: competitive ELISA, hIL-31/hIL-31RA
Description: Potency of the two humanized scFvs was further determined using a competitive ELISA. The potency of each scFv to inhibit the interaction between human IL-31 and human IL-31RA was assessed by an ELISA using the same procedure as described in EP20216938.9.

Binder | IC50, neutralization of hIL-4 induced signaling, stat-6 reporter gene assay [1] [ng/mL] | IC50, neutralization of hIL-13 induced signaling, stat-6 reporter gene assay [1] [ng/mL] | IC50 [2] [ng/mL] | IC50 [3] [ng/mL] | IC50, neutralization of hIL-31-induced signaling in IL-31RA/OSMR dimerization assay [4] [ng/mL] | Kd (human IL-31-His [5]) [nM] | koff (human IL-31-His [5]) [s⁻¹] | kon (human IL-31-His [5]) [M⁻¹ s⁻¹] | IC50, neutralization of hIL-31-induced signaling in IL-31RA/OSMR dimerization assay [6] [ng/mL] | Kd (human IL-31-His [7]) [nM] | koff (human IL-31-His [7]) [s⁻¹] | kon (human IL-31-His [7]) [M⁻¹ s⁻¹] | Kd (human IL-31-His [8]) [nM] | koff (human IL-31-His [8]) [s⁻¹] | kon (human IL-31-His [8]) [M⁻¹ s⁻¹] | IC50 [9] [ng/mL]
B1 | 1.15 | 1 | 6.18 | 6.78 | – | – | – | – | – | – | – | – | – | – | – | –
B2 | – | – | – | – | 8.08 | 0.63 | 0.000516 | 820000 | 11.1 | 0.505 | 0.000447 | 884000 | 1.13 | 0.000653 | 579000 | 4.58

Reference: US20250282879A1 (CILAG GMBH INTERNATIONAL, published 2025)
